In article doi:10.1101/2022.04.08.487687, “In Silico Improvement of Highly Protective Anti-Malarial Antibodies” (bioRxiv, 2022):
No end group written: not given here.

Target: T1, peptide 21 (PfCSP residues 101-115), biotinylated (Plasmodium falciparum 3D7, UniProt Q7K740, also: biotin, position not given here)
T1 construct: Biotinylated probe used in AlphaLISA and BLI; also called Pep21; P21
T1 chain: NPDPNANPNVDPNAN
Test: BLI; Octet Red384; biotinylated Pep21 immobilised on streptavidin biosensors; Fab serially diluted from 1000 to 62.5 nM; 30°C; PBS + 1% BSA; global fit, 1:1 Langmuir model
Settings: both partners purified

B1: P3-43 Fab (m43.151 variant P100KH) (Fab, V domains shown)
VH: QVHLVQSGAEVKKPGASVKVSCKASGYTFTSYAIHWVRQAPGQRLEWMGWIKGGNGNTRYSQKFQDRVTITRDTSASTAYMELSSLRSEDTAVYYCALLTVITKDDAFDIWGQGTMVTVSS
VL: not shown
notes: as the heavy chain of m5 (m43.151) with the stated change; as the light chain of m5 (m43.151), no change stated; Best m43.151-based variant; source: Fab produced from the antibody
  Kd: 8.9 ± 0.5 nM
